The values that follow are results of earlier work, collected in patent US11749377B2, “Method and electronic system for predicting at least one fitness value of a protein, related computer program product” (PEACCEL, priority 2015, dated 2023).

The target in one series is T1, GLP-1 receptor (Rattus norvegicus, UniProt P32301).
T1 sequence (P32301 22-463): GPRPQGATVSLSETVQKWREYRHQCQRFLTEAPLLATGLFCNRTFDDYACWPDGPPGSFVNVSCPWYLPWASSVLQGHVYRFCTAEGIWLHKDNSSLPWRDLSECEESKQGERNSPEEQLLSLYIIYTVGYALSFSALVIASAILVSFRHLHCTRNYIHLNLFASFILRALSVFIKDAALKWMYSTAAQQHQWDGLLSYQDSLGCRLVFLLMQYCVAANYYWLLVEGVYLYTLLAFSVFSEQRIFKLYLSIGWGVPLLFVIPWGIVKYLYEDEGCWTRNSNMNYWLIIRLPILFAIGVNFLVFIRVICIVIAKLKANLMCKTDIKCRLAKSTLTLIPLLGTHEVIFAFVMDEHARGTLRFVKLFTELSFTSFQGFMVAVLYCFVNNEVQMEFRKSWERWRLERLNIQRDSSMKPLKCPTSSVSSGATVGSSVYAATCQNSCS
The following applies: Log(EC50), adenylate cyclase activity.

For a further series, the target named is T2, rat GLP-1 receptor (Rattus norvegicus, UniProt P32301).
T2 sequence (P32301 22-463): T1 sequence (P32301 22-463)
The following applies: Log(IC50), binding affinity to rat GLP-1 receptor.

In the case of “GLP1 A2S: single mutant analog of human GLP1”, in the series with GLP-1 receptor, the logEC50 is given as 0.301. Also, in the series with rat GLP-1 receptor, the logIC50 is given as 0.3802.

For the substance “GLP1 A18R: single mutant analog of human GLP1”, the logEC50 with GLP-1 receptor was 1.23. Besides, the logIC50 with rat GLP-1 receptor was −0.05061. On to “GLP1 D9A: single mutant analog of human GLP1”, for which the logIC50 with rat GLP-1 receptor is 1.041. With “GLP1 E3A: single mutant analog of human GLP1”, the logEC50 with GLP-1 receptor is given as 0.301. Moreover, the logIC50 with rat GLP-1 receptor is on record as 0.9085. Take “GLP1 E15A: single mutant analog of human GLP1”: the logEC50 in the series with GLP-1 receptor is on record as 1.813. For the same substance, the logIC50 with rat GLP-1 receptor is 0.6128. As to “GLP1 F6A: single mutant analog of human GLP1”, the logEC50 with GLP-1 receptor is recorded as 1.519. Further, in the series with rat GLP-1 receptor, the logIC50 is on record as 1.5563. For the substance “GLP1 F22A: single mutant analog of human GLP1”, the logEC50 with GLP-1 receptor is given as 3.415. The logIC50 with rat GLP-1 receptor is listed as 2.545.

As to “GLP1 G4A: single mutant analog of human GLP1”, the logIC50 in the series with rat GLP-1 receptor is reported as 1.771. As for “GLP1 G16A: single mutant analog of human GLP1”, the logEC50 with GLP-1 receptor is listed as 0.6021. In addition, the logIC50 in the series with rat GLP-1 receptor is given as −0.2441.

In the case of “GLP1 G29A: single mutant analog of human GLP1”, the logEC50 in the series with GLP-1 receptor was 0. In the series with rat GLP-1 receptor, the logIC50 is 0.1139. For the substance “GLP1 I23A: single mutant analog of human GLP1”, in the series with GLP-1 receptor, the logEC50 is on record as 1.8451. The logIC50 in the series with rat GLP-1 receptor is given as 1.398. Turning to “GLP1 K20A: single mutant analog of human GLP1”, in the series with GLP-1 receptor, the logEC50 is recorded as 1.114. In the series with rat GLP-1 receptor, the logIC50 was 0.1461. On to “GLP1 K28A: single mutant analog of human GLP1”, for which the logEC50 with GLP-1 receptor is 0.301. Further, in the series with rat GLP-1 receptor, the logIC50 is recorded as 0.2304. In the case of “GLP1 L14A: single mutant analog of human GLP1”, in the series with GLP-1 receptor, the logEC50 was 0.8451. Moreover, the logIC50 with rat GLP-1 receptor is reported as 0.2304. In the case of “GLP1 L26A: single mutant analog of human GLP1”, the logEC50 with GLP-1 receptor is given as 0.6021. Further, in the series with rat GLP-1 receptor, the logIC50 is on record as 0.6721. On to “GLP1 Q17A: single mutant analog of human GLP1”, for which, in the series with GLP-1 receptor, the logEC50 is 0.699. Also, the logIC50 in the series with rat GLP-1 receptor is 0.04139. “GLP1 R30A: single mutant analog of human GLP1”: the logEC50 with GLP-1 receptor was 0.8451. Further, the logIC50 with rat GLP-1 receptor is 0.6628. In the case of “GLP1 S8A: single mutant analog of human GLP1”, the logEC50 with GLP-1 receptor was 0.699. In the series with rat GLP-1 receptor, the logIC50 is listed as −0.1192.

Regarding “GLP1 S11A: single mutant analog of human GLP1”, the logEC50 in the series with GLP-1 receptor is reported as 0.4771. The logIC50 with rat GLP-1 receptor is recorded as −0.3372. Turning to “GLP1 S12A: single mutant analog of human GLP1”, the logEC50 in the series with GLP-1 receptor is reported as 0.301. Besides, the logIC50 with rat GLP-1 receptor is −0.1675.

Take “GLP1 T5A: single mutant analog of human GLP1”: the logEC50 in the series with GLP-1 receptor is 0.699. In the series with rat GLP-1 receptor, the logIC50 is 0.5441. “GLP1 T7A: single mutant analog of human GLP1”: in the series with GLP-1 receptor, the logEC50 was 1.813. In the series with rat GLP-1 receptor, the logIC50 was 1.5563. Turning to “GLP1 V10A: single mutant analog of human GLP1”, in the series with GLP-1 receptor, the logEC50 is reported as 0.8451. Besides, the logIC50 with rat GLP-1 receptor is 0.2304.

As for “GLP1 V27A: single mutant analog of human GLP1”, the logEC50 in the series with GLP-1 receptor was 0.301. For the same substance, the logIC50 with rat GLP-1 receptor is given as 0.1461. With “GLP1 W25A: single mutant analog of human GLP1”, in the series with GLP-1 receptor, the logEC50 was 1.176. Moreover, the logIC50 in the series with rat GLP-1 receptor is given as 0.2041. “GLP1 Y13A: single mutant analog of human GLP1”: the logEC50 in the series with GLP-1 receptor was 1.74. For the same substance, the logIC50 with rat GLP-1 receptor is 0.5441.
